Results reported in US20260049134A1 (UNIVERSITY OF FLORIDA RESEARCH FOUNDATION, published 2026).

T1: SELL (L-Selectin)
T1 construct: coated protein in the ELISA; also called SELL-Fc-His (R&D Systems)
T1 chain: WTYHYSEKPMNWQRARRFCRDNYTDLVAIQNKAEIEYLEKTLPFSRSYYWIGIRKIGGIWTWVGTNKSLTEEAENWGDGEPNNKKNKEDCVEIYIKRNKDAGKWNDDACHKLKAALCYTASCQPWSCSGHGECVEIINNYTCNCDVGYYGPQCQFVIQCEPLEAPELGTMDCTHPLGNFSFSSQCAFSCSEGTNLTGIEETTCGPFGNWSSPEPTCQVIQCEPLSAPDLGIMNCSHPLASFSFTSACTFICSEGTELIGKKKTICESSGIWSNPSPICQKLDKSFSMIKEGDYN

T2: DCC
T2 construct: coated protein in the ELISA; also called DCC-His (R&D Systems)
T2 chain: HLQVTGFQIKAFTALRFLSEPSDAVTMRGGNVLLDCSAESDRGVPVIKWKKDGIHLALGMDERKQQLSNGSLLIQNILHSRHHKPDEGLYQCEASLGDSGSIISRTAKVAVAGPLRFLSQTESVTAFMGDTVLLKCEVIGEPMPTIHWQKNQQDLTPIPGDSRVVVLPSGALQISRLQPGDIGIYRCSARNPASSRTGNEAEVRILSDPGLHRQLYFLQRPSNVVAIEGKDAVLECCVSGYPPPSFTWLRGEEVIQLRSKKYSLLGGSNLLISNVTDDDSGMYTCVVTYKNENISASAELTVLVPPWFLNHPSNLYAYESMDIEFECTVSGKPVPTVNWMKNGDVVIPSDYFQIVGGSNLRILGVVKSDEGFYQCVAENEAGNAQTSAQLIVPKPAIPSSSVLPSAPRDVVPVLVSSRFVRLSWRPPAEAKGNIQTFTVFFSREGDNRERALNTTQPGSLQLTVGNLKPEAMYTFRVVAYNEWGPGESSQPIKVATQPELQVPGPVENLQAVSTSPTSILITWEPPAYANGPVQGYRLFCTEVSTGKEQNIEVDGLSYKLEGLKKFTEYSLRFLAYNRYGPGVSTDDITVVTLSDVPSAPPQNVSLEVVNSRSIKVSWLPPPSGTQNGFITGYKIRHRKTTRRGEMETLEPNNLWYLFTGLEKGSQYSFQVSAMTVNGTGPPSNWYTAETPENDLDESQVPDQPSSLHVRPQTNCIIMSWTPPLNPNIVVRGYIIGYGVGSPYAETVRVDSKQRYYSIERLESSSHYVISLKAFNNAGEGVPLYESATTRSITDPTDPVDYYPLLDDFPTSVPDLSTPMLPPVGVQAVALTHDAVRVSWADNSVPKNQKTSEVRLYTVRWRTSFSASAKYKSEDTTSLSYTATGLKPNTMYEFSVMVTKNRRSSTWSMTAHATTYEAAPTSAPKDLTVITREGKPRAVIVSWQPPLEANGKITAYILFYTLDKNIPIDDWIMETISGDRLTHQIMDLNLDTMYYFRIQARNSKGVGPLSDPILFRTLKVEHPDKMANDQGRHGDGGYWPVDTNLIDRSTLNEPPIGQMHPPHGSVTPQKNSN

T3: ANXA1
T3 construct: coated protein in the ELISA; also called ANXA1-His (R&D Systems)
T3 chain: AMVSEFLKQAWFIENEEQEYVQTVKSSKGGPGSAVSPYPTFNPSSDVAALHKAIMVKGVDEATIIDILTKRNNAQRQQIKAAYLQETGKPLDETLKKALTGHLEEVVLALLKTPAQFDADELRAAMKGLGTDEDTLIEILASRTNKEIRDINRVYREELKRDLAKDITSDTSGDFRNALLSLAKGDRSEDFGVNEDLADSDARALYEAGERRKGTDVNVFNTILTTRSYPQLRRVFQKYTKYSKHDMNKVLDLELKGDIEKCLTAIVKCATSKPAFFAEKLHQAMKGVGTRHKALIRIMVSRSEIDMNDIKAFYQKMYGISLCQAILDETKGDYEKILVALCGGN

T4: HHLA2 (B7-H7)
T4 construct: coated protein in the ELISA; also called HHLA2-Fc (R&D Systems)
T4 chain: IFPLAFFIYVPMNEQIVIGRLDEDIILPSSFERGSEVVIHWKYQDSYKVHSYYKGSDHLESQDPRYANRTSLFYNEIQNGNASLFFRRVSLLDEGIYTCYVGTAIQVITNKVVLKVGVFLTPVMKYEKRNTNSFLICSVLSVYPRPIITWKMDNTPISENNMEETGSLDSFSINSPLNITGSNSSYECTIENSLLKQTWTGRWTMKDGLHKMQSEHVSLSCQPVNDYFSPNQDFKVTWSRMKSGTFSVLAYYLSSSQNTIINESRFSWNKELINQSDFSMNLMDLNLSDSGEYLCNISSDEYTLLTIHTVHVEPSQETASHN


How the values were obtained:
[1] = target: T1, SELL (L-Selectin); assay: ELISA on coated SELL-Fc-His, 150 ng IgG1; None 0.096
Procedure: (§1) Recombinant purified ECDs (50-150 ng) of each putative target protein were coated, incubated with 150 ng of the indicated primary antibody, and binding was detected using a peroxidase-conjugated anti-human Fab secondary antibody. Heatmap represents averages of technical triplicates. (8B) Target validation via siRNA knockdown. H929 cells were transfected with siRNA pools targeting the putative antibody targets ICAM1, CADM1, and PTPRG. Cells were then subjected to cognate IgG binding analysis via flow cytometry. (NT, non-targeting siRNA).
(§2) ELISA ELISA was conducted as described previously. Briefly, 50-150 ng of antigen was coated overnight in half-area 96-well plates at 4° C., blocked with 3% BSA at 37° C. for 1 h, and 150 ng of chimeric rabbit/human IgG1 was added, incubating for 2 h at 37° C. […] After incubating at 37° C. for 15 min-1 h (depending on intensity of controls), data were acquired using a SpectraMax M5 plate reader (Molecular Devices).

[2] = target: T2, DCC; assay: ELISA on coated DCC-His
Procedure: as §1, §2

[3] = target: T5, PTP4A3 (PRL-3); assay: ELISA on coated His-PTP4A3, 150 ng IgG1; None 0.085
T5 construct: coated protein in the ELISA; also called His-PTP4A3 (R&D Systems)
Procedure: as §1, §2

[4] = target: T6, ICAM1-Fc (R&D Systems) (human, UniProt P05362 28-480); assay: ELISA on coated ICAM1-Fc, 150 ng IgG1; None 0.060
T6 construct: Bought; also called ICAM-1/CD54; not shown: Fc of the bought fusion protein
Procedure: as §1, §2

[5] = target: T5, PTP4A3 (PRL-3); assay: ELISA on coated His-PTP4A3
Procedure: as §1, §2

[6] = target: T3, ANXA1; assay: ELISA on coated ANXA1-His
Procedure: as §1, §2

[7] = target: T4, HHLA2 (B7-H7); assay: ELISA on coated HHLA2-Fc
Procedure: as §1, §2

T6 sequence (P05362 28-480): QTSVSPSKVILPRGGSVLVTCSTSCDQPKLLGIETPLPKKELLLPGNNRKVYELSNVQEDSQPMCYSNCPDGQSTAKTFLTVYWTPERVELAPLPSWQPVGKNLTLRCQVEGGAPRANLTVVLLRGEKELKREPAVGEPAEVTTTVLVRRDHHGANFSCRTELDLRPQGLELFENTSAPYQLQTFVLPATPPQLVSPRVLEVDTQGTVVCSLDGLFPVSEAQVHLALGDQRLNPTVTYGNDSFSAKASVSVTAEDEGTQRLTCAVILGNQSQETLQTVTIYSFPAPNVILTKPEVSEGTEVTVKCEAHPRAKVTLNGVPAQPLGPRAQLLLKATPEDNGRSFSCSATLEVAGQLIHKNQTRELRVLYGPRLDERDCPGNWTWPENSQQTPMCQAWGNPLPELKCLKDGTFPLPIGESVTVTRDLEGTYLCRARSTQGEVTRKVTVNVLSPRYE
T5 sequence (chain, as listed by the source limits assumed): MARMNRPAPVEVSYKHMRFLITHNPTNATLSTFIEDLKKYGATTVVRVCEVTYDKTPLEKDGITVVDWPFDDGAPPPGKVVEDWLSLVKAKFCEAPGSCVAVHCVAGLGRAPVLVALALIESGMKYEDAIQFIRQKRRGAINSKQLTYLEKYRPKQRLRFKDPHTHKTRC

Row | Binder | ELISA Absorbance (405 nm-570 nm) [1] | ELISA Absorbance (405 nm-570 nm) [3] | ELISA Absorbance (405 nm-570 nm) [4] | binding result [2] | binding result [5] | binding result [6] | binding result [7]
1 | HW-17 chimeric rabbit-human IgG1 LA/LA/PG (antibody, V domains shown, Fc-silenced (L234A/L235A/P329G) IgG1, lambda; Alexa Fluor 647-labeled in single-step flow cytometry; Cluster C-1) VH: QSLGESRGRLVTPDETLTLTCTVSGIDLSSNAMSWVRQAPGEGLEWIGTINTGGRAYYASWAKGRFTISRTSTTVDLKMTSLTTEDTATYFCARERYSDGRAYDIWGPGTLVTISS VL: SFVLTQPASVQVNLGQTVSLTCTADTLSRRYASWYQQKPGQAPVLLIYTDSNRPSGIPDRFSGSSSGNTATLTISGAQAGDEADYYCATDDGSGSIYQYVFGGGTQLTVTG | 0.072 | 0.072 | 0.071 | no binding (tested: 150 ng IgG1 per well) | no binding (tested: 150 ng IgG1 per well) | no binding (tested: 150 ng IgG1 per well) | no binding (tested: 150 ng IgG1 per well)
2 | HW-8 chimeric rabbit-human IgG1 LA/LA/PG (antibody, V domains shown, Fc-silenced (L234A/L235A/P329G) IgG1, kappa; Alexa Fluor 647-labeled in single-step flow cytometry; Cluster C-45) VH: QSLEESGGRLVTPGTPLTLTCTVSGFSLSSYAMSWVRQAPGKGLEWIGAISTGGSTTYASWAKGRFTISKTSSTTVDLKMTSLTTEDTATYFCVRHFRLWGPGTLVTISS VL: QVLTQTPSSVSAAVGGTVTIKCQASQSIGSALAWFQQKPGQRPKLLIYRASNLASGVPSRFKGSGSGTEFALTISGVQREDAATYYCLGGAAAVWAFGAGTNVEIKR | 0.074 | 0.075 | 0.067 | no binding (tested: 150 ng IgG1 per well) | no binding (tested: 150 ng IgG1 per well) | no binding (tested: 150 ng IgG1 per well) | no binding (tested: 150 ng IgG1 per well)
3 | HW-56 chimeric rabbit-human IgG1 LA/LA/PG (antibody, V domains shown, Fc-silenced (L234A/L235A/P329G) IgG1, kappa; Alexa Fluor 647-labeled in single-step flow cytometry; Cluster C-45) VH: QSVKESEGGLFKPTDTLTLTCTASGFTVSTNAVTWVRQAPGNGLEYIGTIGRSGSAYFASWAKRRSTLTRDINLNTVTLKMTSLTAADTATYFCVRGSPGYRTAISIWGPGTLVTISS VL: AVMTQTPSSTSAAVEGTVTINCQASQSISNRLSWFQQKPGQPPKLLIYQASTLASGVPSRFKGSGSGTEFTLTISGVQREDAATYYCLGSYSSSDASFGGGTKLEIKR | 0.117 | 0.104 | 0.074 | no binding (tested: 150 ng IgG1 per well) | no binding (tested: 150 ng IgG1 per well) | no binding (tested: 150 ng IgG1 per well) | no binding (tested: 150 ng IgG1 per well)
4 | HW-81 chimeric rabbit-human IgG1 LA/LA/PG (antibody, V domains shown, Fc-silenced (L234A/L235A/P329G) IgG1, lambda; Alexa Fluor 647-labeled in single-step flow cytometry; Cluster C-45) VH: QKQLVESGGGLVTPGGTLTLTCTVSGFSLSSNGVSWVRQAPGKGLEYIGLIRSIGSTYYATWAKGRFTISKTSTTVDLKITSPTTEDTATYFCARGGYRNGFKLWGPGTLVTVSS VL: QPVLTQSPSVSAALGASAKLTCTLSSAHKTYYIEWYQQQHPGKAPRYLMQLQSDGSYTKGTGVPDRFSGSSSGADRYLIISSVQAEDEADYICGVIDSAVYVFGGGTQLTVTG | 0.083 | 0.08 | 0.051 | no binding (tested: 150 ng IgG1 per well) | no binding (tested: 150 ng IgG1 per well) | no binding (tested: 150 ng IgG1 per well) | no binding (tested: 150 ng IgG1 per well)

Now from value to binder, other results behind:

Row | ELISA Absorbance (405 nm-570 nm) [1] | ELISA Absorbance (405 nm-570 nm) [3] | ELISA Absorbance (405 nm-570 nm) [4] | Binder | binding result [2] | binding result [5] | binding result [6] | binding result [7]
5 | 0.075 | 0.065 | 0.081 | HW-97 chimeric rabbit-human IgG1 LA/LA/PG (antibody, V domains shown, Fc-silenced (L234A/L235A/P329G) IgG1, lambda; Alexa Fluor 647-labeled in single-step flow cytometry; Prototype of cluster C-97) VH: QKQLVESGGRLVTPGTPLTLTCTVTGIDLSSHGMSWVRQAPGKGLEWIGVIYPSGSTWYASWARGRFTISKTSTTVDLKMTSLTTEDTATHFCARGDVGGADNNIWGPGTLVTVSS VL: SFVLTQPASVQVDLGQTVSLTCTAETLSRSYASWYQQKPGQAPVLLIYRDTSRPSGVPDRFSGSSSGNTATLTISGAQAGDEADYYCATSDGSGSSYQYVFGGGTQLTVTG | no binding (tested: 150 ng IgG1 per well) | no binding (tested: 150 ng IgG1 per well) | no binding (tested: 150 ng IgG1 per well) | no binding (tested: 150 ng IgG1 per well)
6 | 0.072 | 0.065 | 0.055 | HW-101 chimeric rabbit-human IgG1 LA/LA/PG (antibody, V domains shown, Fc-silenced (L234A/L235A/P329G) IgG1, lambda; Alexa Fluor 647-labeled in single-step flow cytometry; Cluster C-97) VH: QEQLVESGGRLVTPGTPLTLTCKASGFSLGKYDMSWVRQAPGKGLEWIGTIYAGSGSTWYASWAKGRFTISKTSTTVDLKMTSLTTEDTATYFCARDFLGVNSIWGPGTLVTISS VL: SFVLTQPASVQVNLGQTVSLTCTADTLSRSYASWYQQKPDQAPVLLIHRDTSRPSGVPDRFSGSNSGNTATLTISGAQAGDEADYYCATSDGSGSNFHFVFGGGTQLTVTG | no binding (tested: 150 ng IgG1 per well) | no binding (tested: 150 ng IgG1 per well) | no binding (tested: 150 ng IgG1 per well) | no binding (tested: 150 ng IgG1 per well)
7 | 0.088 | 0.078 | 0.498 | HW-113 chimeric rabbit-human IgG1 LA/LA/PG (antibody, V domains shown, Fc-silenced (L234A/L235A/P329G) IgG1, lambda; Alexa Fluor 647-labeled in single-step flow cytometry) VH: QKQLVESGGGLVQPGGSLTLTCTVSGFSLNKYYMGWFRQAPGKGLEWIGVISRSGDTYYSSWAKGRFTISKASTTVDLRITSPTTEDTATYFCARDASSPGFHGDRLDLWGQGTLVTVSS VL: SFVLTQPASVQVNLGQTVSLTCTADTLSRSYASWYQQKPGQAPVLLIYRDTSRPSGVPDRFSGSSSGNTATLTISGAQAGDEADYYCATSDGIGSNYLWVFGGGTQLTVTG | no binding (tested: 150 ng IgG1 per well) | no binding (tested: 150 ng IgG1 per well) | no binding (tested: 150 ng IgG1 per well) | no binding (tested: 150 ng IgG1 per well)
